# Measured values published in PMC8007570.
# What was measured:
# [1] = biological target: Pf MRNBD wild type (Mre11 + Rad50 NBD) (Pyrococcus furiosus, UniProt Q8U1N9;P58301 1-426;1-195+709-882, internal_change); assay: fluorescence polarization; 1 mM MnCl2, 0.1 mM EDTA, no ATP/Mg2+; FP: 25 nM DNA, 50 mM HEPES, 100 mM NaCl, 1 mM MnCl2, 0.1 mM EDTA, 1% glycerol, 1 mM TCEP, 0.1% PEG-6000, pH 7, 15 min room temperature; NMR at 50 C
# Pf MRNBD Y199C = Pf MRNBD Y199C (Pyrococcus furiosus, UniProt Q8U1N9;P58301 1-426;1-195+709-882, Y199C;internal_change); assay: as above
binder,measurement,setting,value
FAM 40-mer dsDNA (dsDNA) DNA 1: GTGTTCGGACTCTGCCTCAAGACGGTAGTCAACGTGCTTG DNA 2: CAAGCACGTTGACTACCGTCTTGAGGCAGAGTCCGAACAC,Kd,[1],2000 nM
same,Kd,Pf MRNBD Y199C,2500 nM
GTGTTCGGACTCTGCCTCAAGACGGTAGTCAACGTGCTTG (ssDNA) [FAM 40-mer ssDNA],Kd,[1],310 nM
same,Kd,Pf MRNBD Y199C,350 nM
